Molecular target: T1, RNF31 PUB domain (Homo sapiens, UniProt Q96EP0)
T1 construct: MBP-TEV (N, cleaved yes); made in house; host or cells: E. coli BL21 (DE3) pLysS
T1 sequence (Q96EP0 1-179): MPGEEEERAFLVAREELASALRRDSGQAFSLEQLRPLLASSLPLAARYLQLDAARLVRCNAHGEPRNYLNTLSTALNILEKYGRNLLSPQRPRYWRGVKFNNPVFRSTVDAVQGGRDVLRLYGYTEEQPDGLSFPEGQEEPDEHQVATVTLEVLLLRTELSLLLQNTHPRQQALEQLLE
Experiment: Phage Library Screening with NGS, RNF31 PUB domain
Type: binding
Conditions: for Phage library screen NGS readout, Target Concentration 10 / Phage library screen NGS readout, Target Concentration 30 / Phage library screen NGS readout, Target Concentration 100 / Phage library screen NGS readout, Target Concentration 300 / Phage library screen NGS readout, Target Concentration 1000: RNF31 PUB domain clusters C41-C45; for Phage library screen NGS readout, BLANK: clusters C41-C45

[1] = target concentration 1000, first column
[2] = target concentration 1000, second column

Row | Sequence | Phage library screen NGS readout, Target Concentration 10 | Phage library screen NGS readout, Target Concentration 30 | Phage library screen NGS readout, Target Concentration 100 | Phage library screen NGS readout, Target Concentration 300 | Phage library screen NGS readout, Target Concentration 1000 [1] | Phage library screen NGS readout, Target Concentration 1000 [2] | Phage library screen NGS readout, BLANK (column 1 of 5) | Phage library screen NGS readout, BLANK (column 2 of 5) | Phage library screen NGS readout, BLANK (column 3 of 5) | Phage library screen NGS readout, BLANK (column 4 of 5) | Phage library screen NGS readout, BLANK (column 5 of 5)
1 | DPAWMDCLYAAYDCQHM | 2 | 2 | 0 | 9 | 29 | 24 | 1 | 1 | 1 | 0 | 0
2 | DPAYDLCLNAAVACTYV | 0 | 2 | 2 | 19 | 62 | 71 | 1 | 2 | 1 | 0 | 0
3 | DPAWNDCLYAAETCISW | 1 | 1 | 1 | 3 | 11 | 1 | 2 | 1 | 1 | 0 | 0
4 | DPALRDCLDAAIMCTYT | 0 | 1 | 0 | 4 | 5 | 7 | 0 | 0 | 0 | 0 | 0
5 | DPAEWDCLYAAFDCFAN | 2 | 2 | 0 | 3 | 15 | 7 | 0 | 0 | 0 | 0 | 0
6 | DPAVVDCWDAAVQCTYY | 0 | 0 | 0 | 4 | 15 | 11 | 0 | 0 | 0 | 2 | 0
7 | DPALEDCQWAALYCDEY | 0 | 0 | 1 | 2 | 7 | 9 | 1 | 1 | 1 | 0 | 0
8 | DPAWWDCMYAASHCDTV | 0 | 0 | 0 | 3 | 12 | 2 | 2 | 0 | 0 | 0 | 0
9 | DPAQEECFEAAVFCSYY | 2 | 0 | 2 | 7 | 36 | 20.49 | 0 | 0 | 0 | 0 | 1
10 | DPAEDWCMYAAWDCQME | 1 | 0 | 0 | 4 | 22 | 10 | 0 | 0 | 0 | 0 | 0
11 | DPAWWNCLYAANTCVED | 0 | 1 | 0 | 5 | 7 | 5 | 1 | 2 | 1 | 1 | 1
12 | DPALSHCTVAAMVCSTY | 1 | 1 | 1 | 11 | 96 | 69 | 0 | 0 | 2 | 0 | 0

More lines, now with the values ahead:

Row | Phage library screen NGS readout, Target Concentration 10 | Phage library screen NGS readout, Target Concentration 30 | Phage library screen NGS readout, Target Concentration 100 | Phage library screen NGS readout, Target Concentration 300 | Phage library screen NGS readout, Target Concentration 1000 [1] | Phage library screen NGS readout, Target Concentration 1000 [2] | Phage library screen NGS readout, BLANK (column 1 of 5) | Phage library screen NGS readout, BLANK (column 2 of 5) | Phage library screen NGS readout, BLANK (column 3 of 5) | Phage library screen NGS readout, BLANK (column 4 of 5) | Phage library screen NGS readout, BLANK (column 5 of 5) | Sequence
13 | 0 | 0 | 0 | 2 | 5 | 6 | 0 | 0 | 0 | 0 | 0 | DPAFAQCEVAAMVCTTY
14 | 0 | 0 | 0 | 2 | 12 | 5 | 0 | 0 | 0 | 0 | 0 | DPAWEWCLYAAAECIED
15 | 0 | 0 | 0 | 6 | 9 | 5 | 0 | 0 | 0 | 0 | 4 | DPAFQFCVEAAVACSYY
16 | 1 | 1 | 0 | 6 | 18 | 16 | 2 | 1 | 0 | 1 | 1 | DPAMEWCWDAAVFCTYS
17 | 0 | 0 | 0 | 4 | 6 | 5 | 0 | 0 | 0 | 0 | 0 | DPAWMQCMYAAWDCNIE
18 | 2 | 0 | 0 | 2 | 18 | 9 | 1 | 3 | 1 | 0 | 0 | DPAEQFCLYAAYDCYSE

Source: US20240376151A1, “STAPLED PEPTIDES AND METHODS THEREOF” (FOG PHARMACEUTICALS, INC., priority 2022, published 2024)
